The text below walks through data of patent US20200207837A1 (published 2020).

Substitutions are numbered along the chain they refer to.

T1: activated KLK4 (human KLK4, C-terminal His tag, pro-KLK4 activated with thermolysin) (UniProt Q9Y5K2 31-254)
T1 chain: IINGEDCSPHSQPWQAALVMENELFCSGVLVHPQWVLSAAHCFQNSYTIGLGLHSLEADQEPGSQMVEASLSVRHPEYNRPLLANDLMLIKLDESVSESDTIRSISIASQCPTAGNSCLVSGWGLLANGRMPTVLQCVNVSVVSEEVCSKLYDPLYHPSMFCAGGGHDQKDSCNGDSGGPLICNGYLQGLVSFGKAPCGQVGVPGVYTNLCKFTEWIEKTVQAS

T2: activated KLK8 (human KLK8, C-terminal His tag, pro-KLK8 activated with thermolysin) (UniProt O60259 33-260)
T2 chain: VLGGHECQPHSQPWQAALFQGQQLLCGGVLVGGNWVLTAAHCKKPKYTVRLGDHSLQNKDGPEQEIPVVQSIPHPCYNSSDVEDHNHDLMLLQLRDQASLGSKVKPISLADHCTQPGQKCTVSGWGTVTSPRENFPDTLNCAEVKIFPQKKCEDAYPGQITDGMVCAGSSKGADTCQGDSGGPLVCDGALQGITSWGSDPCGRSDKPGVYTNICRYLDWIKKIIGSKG

T3: KLK4 biotinylated with EZ-Link NHS-PEG4-Biotin (UniProt Q9Y5K2 31-254, biotinylated with EZ-Link NHS-PEG4-Biotin (sites not given))
T3 chain: T1 chain

B1: KLK4 inhibitory peptide K40004 (designed binder)
chain: GSGMKETAAAKFERQHMDSPDLGTDDDDKAMADIGSANSDPQFGLFSKYRTPNCEHAQLGVCQKLYQPVCGSDMSTYANECTLCMKIREGGHNIKIIRNGPCGASAAA
B2: KLK1 inhibitory peptide K10062 (designed binder)
chain: B1 chain with E55D, H56I, A57Y, L59V, G60D, V61R, Q63W, K64W, L65A, Y66S
B3: KLK4/KLK8 inhibitory peptide K41046 (designed binder)
chain: B1 chain with E55G, H56R, A57Y, Q58Y, L59R, V61W, Q63F, L65S, Y66L, Q67E
B4: KLK1 inhibitory peptide K10071 (designed binder)
chain: GSGMKETAAAKFERQHMDSPDLGTDDDDKAMADIGSANSDPQFGLFSKYRTPNCDQNKYRDCHYYYKPVCGSDMSTYANECTLCMKIREGGHNIKIIRNGPCGASAAA
B5: KLK4 inhibitory peptide K40001 (designed binder)
chain: B1 chain with E55R, H56K, A57Y, Q58E, L59Y, K64R, L65T, Q67L
B6: KLK1 inhibitory peptide K10061 (designed binder)
chain: B4 chain with D55A, Q56R, K58N, Y59I, R60V, H63F
B7: KLK4 inhibitory peptide K40005 (designed binder)
chain: B4 chain with D55S, N57Q, K58A, Y59M, R60G, D61A, H63Q, Y64R, Y65I
B8: KLK4/KLK8 inhibitory peptide K41026 (designed binder)
chain: B4 chain with D55Q, Q56R, N57Y, Y59M, D61G, H63N, Y64R, Y65M, K67D
B9: KLK1 inhibitory peptide K10066 (designed binder)
chain: GSGMKETAAAKFERQHMDSPDLGTDDDDKAMADIGSANSDPQFGLFSKYRTPNCSVALRDICWWTSEPVCGSDMSTYANECTLCMKIREGGHNIKIIRNGPCGASAAA
B10: KLK4/KLK8 inhibitory peptide K41047 (designed binder)
chain: GSGMKETAAAKFERQHMDSPDLGTDDDDKAMADIGSANSDPQFGLFSKYRTPNCMRFHKDGCARIYDPVCGSDMSTYANECTLCMKIREGGHNIKIIRNGPCGASAAA
B11: KLK4/KLK8 inhibitory peptide K41024 (designed binder)
chain: B10 chain with M55T, F57Y, H58V, K59V, D60N, A63S, I65V
B12: KLK4/KLK8 inhibitory peptide K41043 (designed binder)
chain: B10 chain with M55R, F57Y, H58S, K59I, D60H, A63N, I65M, D67A
B13: KLK4/KLK8 inhibitory peptide K41042 (designed binder)
chain: B10 chain with M55S, F57Y, H58R, K59R, D60E, A63N, I65M, D67N
B14: KLK4/KLK8 inhibitory peptide K41045 (designed binder)
chain: B10 chain with M55R, R56K, F57Q, H58Y, K59W, D60V, A63N, I65M, D67A
B15: KLK4/KLK8 inhibitory peptide K41021 (designed binder)
chain: B10 chain with M55R, R56K, F57H, H58T, K59L
B16: KLK4/KLK8 inhibitory peptide K41025 (designed binder)
chain: B10 chain with M55S, F57Y, H58K, K59S, D60G, A63T, Y66F
B17: KLK4/KLK8 inhibitory peptide K41041 (designed binder)
chain: B10 chain with M55Q, F57Y, H58S, K59Q, D60W, A63T, I65Q, Y66L
B18: KLK4 inhibitory peptide K40003 (designed binder)
chain: B1 chain with H56L, A57Y, Q58V, L59E, G60D, K64R, L65I, Y66F, Q67K

activated KLK1 (human KLK1, C-terminal His tag, pro-KLK1 activated with thermolysin), sequence (P06870 25-262): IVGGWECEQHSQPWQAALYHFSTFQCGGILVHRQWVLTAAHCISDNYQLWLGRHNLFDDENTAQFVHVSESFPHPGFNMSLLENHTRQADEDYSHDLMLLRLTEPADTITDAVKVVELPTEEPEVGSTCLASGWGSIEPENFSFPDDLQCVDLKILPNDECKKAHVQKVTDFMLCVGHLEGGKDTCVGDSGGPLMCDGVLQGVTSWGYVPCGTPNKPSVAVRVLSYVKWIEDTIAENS

One test concerns the target activated KLK1 (human KLK1, C-terminal His tag, pro-KLK1 activated with thermolysin) (UniProt P06870 25-262). The test is described as follows: peptide substrate degradation inhibition.
Regarding B1, the IC50 (in general, the concentration that gives 50% inhibition) was above 1000 nM.
Consider B2, for which the IC50 amounted to 12 nM.
Still for that read-out and setting: the value for B3 was above 1000 nM; that for B4 was 20 nM.
Still for that read-out and setting: the value for B5 was above 1000 nM.
Regarding B6, half-maximal inhibition (IC50) was put at 13 nM.
Turning to B7, the IC50 is above 1000 nM.
The molecule B8 showed an IC50 above 1000 nM.
Molecule B9 yielded an IC50 of 12 nM.
The same measure, in the same setting: the value for B10 was above 1000 nM.
In turn, B11 showed an IC50 above 1000 nM.
Molecule B12 displayed an IC50 above 1000 nM.
As for B13, the IC50 was above 1000 nM.
The same measure, in the same setting: next, B14: above 1000 nM; B15: above 1000 nM; B16: above 1000 nM.
As to B17, the IC50 was above 1000 nM.
Still for that read-out and setting: the value for B18 was above 1000 nM.

The next test concerns the target T1, activated KLK4 (human KLK4, C-terminal …). The test is described as follows: peptide substrate degradation inhibition.
Turning to B1, it took 2.1 nM to reach half-maximal inhibition (IC50).
The same measure, in the same setting: the value for B2 was above 1000 nM; that for B3 was 2 nM.
B4 displayed an IC50 above 1000 nM.
In turn, B5 gave an IC50 of 1.8 nM.
Same read-out and setting: next, B6: above 1000 nM; B7: 2.2 nM.
As for B8, inhibition was half-maximal at 293 nM (IC50).
Same read-out and setting: the value for B9 was above 1000 nM.
B10: the IC50 worked out at 7.4 nM.
Still for that read-out and setting: next, B11: 293 nM; B12: 1.9 nM.
Still for that read-out and setting: the value for B13 was 15.7 nM; that for B14 was 2.3 nM; that for B15 was 53 nM.
B16: half-maximal inhibition (IC50) was put at 86 nM. This IC50 lies about 1.6-fold higher than the previous one.
Same read-out and setting: the value for B17 was 2.7 nM.
The molecule B18 gave an IC50 of 1.8 nM.

Another test addresses T2, activated KLK8 (human KLK8, C-terminal …). The test is described as follows: peptide substrate degradation inhibition.
Molecule B1 displayed an IC50 above 1000 nM.
With B2, the IC50 is above 1000 nM.
The same measure, in the same setting: the value for B3 was 283 nM; that for B4 was above 1000 nM.
On the same count and under the same terms, next, B5: above 1000 nM.
The same measure, in the same setting: the value for B6 was above 1000 nM.
In turn, B7 yielded an IC50 above 1000 nM.
Still for that read-out and setting: next, B8: 9.1 nM; B9: above 1000 nM; B10: 31.5 nM.
The same measure, in the same setting: next, B11: 8 nM.
B12: 5.3 nM corresponded to half-maximal inhibition (IC50).
Same read-out and setting: the value for B13 was 17.5 nM.
Same read-out and setting: the value for B14 was 114 nM; that for B15 was 7.5 nM; that for B16 was 17 nM.
Still for that read-out and setting: next, B17: 11.4 nM; B18: above 1000 nM.

The next test addresses T1, activated KLK4 (human KLK4, C-terminal …). The test is described as follows: peptide substrate degradation inhibition. This is another data set of the same source.
As to B1, the affinity, expressed as Ki, was 0.38 nM.
Still for that read-out and setting: the value for B3 was 0.31 nM; that for B5 was 0.16 nM; that for B7 was 0.21 nM.
Same read-out and setting: next, B8: 69.3 nM; B10: 1.38 nM.
On the same count and under the same terms, next, B11: 74.6 nM.
As for B12, the Ki – broadly, the dissociation constant of the complex between target and ligand, obtained from inhibition or displacement – stood at 0.21 nM.
Still for that read-out and setting: the value for B13 was 2.8 nM.
On the same count and under the same terms, the value for B14 was 0.32 nM; that for B15 was 10.7 nM; that for B16 was 16.3 nM.
Molecule B17 displayed a Ki of 0.4 nM.
On the same count and under the same terms, the value for B18 was 0.2 nM.

A further test has as its target T3, KLK4 biotinylated with EZ-Link …. The test is described as follows: SPR (Biacore T200). (In general: Surface plasmon resonance follows binding to a sensor surface in real time, without labels.)
With B5, the Kd (usually the free concentration of one partner at which half of the binding sites on the other are occupied at equilibrium, for simple one-to-one binding) was determined as 0.00208 nM. That is a picomolar value.
B12: the Kd turned out to be 0.00891 nM.
For the molecule B18, the Kd is 0.0232 nM.
